What was measured:
[1] = test system: Cc1nccn1CCO; test: purified protein; settings: 4 mM ATP, 10 mM MgCl2, 50 mM potassium phosphate pH 7.5, 37 °C
[2] = target: T1, SaThiM (Staphylococcus aureus, UniProt Q6GEY3); test: X-ray crystal structure of soaked complex, […] Å; format: binding; settings: Mg2+ in four of the six active sites; active site at monomer interface
T1 construct: gene thiM; homotrimer, active sites between two monomers
T1 sequence (Q6GEY3 1-263): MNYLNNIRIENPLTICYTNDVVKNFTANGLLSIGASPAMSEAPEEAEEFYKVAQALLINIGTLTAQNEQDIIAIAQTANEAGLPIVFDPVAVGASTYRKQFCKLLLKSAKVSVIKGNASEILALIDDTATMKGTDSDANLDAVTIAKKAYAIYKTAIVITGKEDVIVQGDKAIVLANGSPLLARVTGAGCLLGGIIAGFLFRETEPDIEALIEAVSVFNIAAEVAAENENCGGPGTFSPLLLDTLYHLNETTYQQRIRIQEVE

[3] = substrate: Cc1nn(C)c(C)c1CCO; test: purified protein; settings: 4 mM ATP, 10 mM MgCl2, 50 mM potassium phosphate pH 7.5, 37 °C

Molecule: SaThiM (Staphylococcus aureus subsp. aureus MRSA252)
- Km [1]: 831 ± 169 µM
- kcat [1]: 3.63 ± 0.05 s⁻¹

Molecule: Cc1ncsc1CCO [THZ, 5-(hydroxyethyl)-4-methylthiazole]
- X-ray crystal structure of soaked complex, 1.90 Å [2]: THZ identically occupies all six active sites of the two trimers in the asymmetric unit

B1: SaThiM (Staphylococcus aureus subsp. aureus MRSA252) (protein)
chain: MNYLNNIRIENPLTICYTNDVVKNFTANGLLSIGASPAMSEAPEEAEEFYKVAQALLINIGTLTAQNEQDIIAIAQTANEAGLPIVFDPVAVGASTYRKQFCKLLLKSAKVSVIKGNASEILALIDDTATMKGTDSDANLDAVTIAKKAYAIYKTAIVITGKEDVIVQGDKAIVLANGSPLLARVTGAGCLLGGIIAGFLFRETEPDIEALIEAVSVFNIAAEVAAENENCGGPGTFSPLLLDTLYHLNETTYQQRIRIQEVE
- Km [3]: 834 ± 147 µM
- kcat [3]: 3.58 ± 0.133 s⁻¹
